One block for each binder: values may come before it. Ends that are not written are not given here. * marks the point of attachment. Fluorescein(5-Mal) = O=C1OC2(c3ccc(O)cc3Oc3cc(O)ccc32)c2ccc(N3C(=O)CC(*)C3=O)cc21
Tests used:
[1] = molecular target: human CPSF30 ZF4–ZF5 (residues 114–173) (human, UniProt O95639-2 114-173); assay: crystal structure
[2] = molecular target: T1, human CPSF30 (residues 62–244) Y127A mutant (human, UniProt O95639-2 62-244, Y127A); assay: SEC
[3] = molecular target: T2, human CPSF30 (residues 62–244) Y151A mutant (human, UniProt O95639-2 62-244, Y151A); assay: SEC
[4] = molecular target: T3, human CPSF30 ZF2–C terminus (residues 62–244), wild type (human, UniProt O95639-2 62-244); assay: SEC
[5] = molecular target: CPSF30 (full-length, wild type)–hFip1 (residues 79–200) complex (human, UniProt O95639-2 1-244; Q6UN15 79-200); assay: SEC
[6] = molecular target: CPSF30 (full-length, Y127A)–hFip1 (residues 79–200) complex (human, UniProt O95639-2 1-244; Q6UN15 79-200, Y127A); assay: SEC
[7] = molecular target: CPSF30 (full-length, Y151A)–hFip1 (residues 79–200) complex (human, UniProt O95639-2 1-244; Q6UN15 79-200, Y151A); assay: SEC
[8] = molecular target: T1, human CPSF30 (residues 62–244) Y127A …; assay: fluorescence polarisation
[9] = molecular target: T2, human CPSF30 (residues 62–244) Y151A …; assay: fluorescence polarisation
[10] = molecular target: T3, human CPSF30 ZF2–C terminus (residues …); assay: fluorescence polarisation
[11] = molecular target: human CPSF30 full-length (residues 1–244) Y127A mutant (human, UniProt O95639-2 1-244, Y127A); assay: SEC
[12] = molecular target: human CPSF30 full-length (residues 1–244) Y151A mutant (human, UniProt O95639-2 1-244, Y151A); assay: SEC

stoichiometry N [1]: 2 hFip1 per CPSF30
stoichiometry N [2]: 1 hFip1 per CPSF30
stoichiometry N [3]: 1 hFip1 per CPSF30
stoichiometry N [4]: 2 hFip1 per CPSF30
Binder: SFEDKPWRKPGADLSDYFNYGFNEDTWKAYCEKQKRIRMGLE (domain or fragment, human, UniProt Q6UN15 159-200, looked up) [hFip1 (residues 159–200)]

stoichiometry N [5]: 2 PAP per CPSF30–hFip1 complex
stoichiometry N [6]: 1 PAP per CPSF30–hFip1 complex
stoichiometry N [7]: 1 PAP per CPSF30–hFip1 complex
B1: catalytic module of human poly(A) polymerase α (residues 1–524) (domain or fragment, UniProt P51003 1-524, looked up)
chain: MPFPVTTQGSQQTQPPQKHYGITSPISLAAPKETDCVLTQKLIETLKPFGVFEEEEELQRRILILGKLNNLVKEWIREISESKNLPQSVIENVGGKIFTFGSYRLGVHTKGADIDALCVAPRHVDRSDFFTSFYDKLKLQEEVKDLRAVEEAFVPVIKLCFDGIEIDILFARLALQTIPEDLDLRDDSLLKNLDIRCIRSLNGCRVTDEILHLVPNIDNFRLTLRAIKLWAKRHNIYSNILGFLGGVSWAMLVARTCQLYPNAIASTLVHKFFLVFSKWEWPNPVLLKQPEECNLNLPVWDPRVNPSDRYHLMPIITPAYPQQNSTYNVSVSTRMVMVEEFKQGLAITDEILLSKAEWSKLFEAPNFFQKYKHYIVLLASAPTEKQRLEWVGLVESKIRILVGSLEKNEFITLAHVNPQSFPAPKENPDKEEFRTMWVIGLVFKKTENSENLSVDLTYDIQSFTDTVYRQAINSKMFEVDMKIAAMHVKRKQLHQLLPNHVLQKKKKHSTEGVKLTALNDSSLD

Kd [8]: 220 ± 32 nM
Kd [9]: 1.8 ± 0.4 nM
Kd [10]: 0.69 ± 0.31 nM
Binder: C(Fluorescein(5-Mal))FEDKPWRKPGADLSDYFNYGFNEDTWKAYSEKQKRIRMGLE (domain or fragment, human, UniProt Q6UN15 159-200, looked up) [hFip1 (residues 159–200) S159C/C189S mutant, FAM-labeled]

stoichiometry N [11]: 1 hFip1 per CPSF30
stoichiometry N [12]: 1 hFip1 per CPSF30
B2: hFip1 (residues 79–200) (domain or fragment, human, UniProt Q6UN15 79-200, looked up)
chain: TETEDDSDSDSDDDEDDVHVTIGDIKTGAPQYGSYGTAPVNLNIKTGGRVYGTTGTKVKGVDLDAPGSINGVPLLEVDLDSFEDKPWRKPGADLSDYFNYGFNEDTWKAYCEKQKRIRMGLE

— PMC7706699 (Genes & Development, 2020)
